Reference: US7629440

Molecular target: murine GM-CSF receptor (murine) (UniProt Q00941)
Test: cell-based or functional assay

UniProt Q00941, sequence (Q00941 30-388, chain 1 of 2): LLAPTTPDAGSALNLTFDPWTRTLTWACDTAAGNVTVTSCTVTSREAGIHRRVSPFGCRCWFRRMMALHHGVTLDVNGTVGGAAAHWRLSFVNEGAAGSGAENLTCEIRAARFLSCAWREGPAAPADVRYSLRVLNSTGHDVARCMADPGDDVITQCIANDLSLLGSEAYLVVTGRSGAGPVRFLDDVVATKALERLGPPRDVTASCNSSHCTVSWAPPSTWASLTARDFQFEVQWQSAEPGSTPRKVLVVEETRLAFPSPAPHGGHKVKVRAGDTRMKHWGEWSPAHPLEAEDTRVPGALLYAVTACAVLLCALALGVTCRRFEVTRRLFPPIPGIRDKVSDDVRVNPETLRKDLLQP
UniProt Q00941, sequence (P26955 23-896, chain 2 of 2, further chain): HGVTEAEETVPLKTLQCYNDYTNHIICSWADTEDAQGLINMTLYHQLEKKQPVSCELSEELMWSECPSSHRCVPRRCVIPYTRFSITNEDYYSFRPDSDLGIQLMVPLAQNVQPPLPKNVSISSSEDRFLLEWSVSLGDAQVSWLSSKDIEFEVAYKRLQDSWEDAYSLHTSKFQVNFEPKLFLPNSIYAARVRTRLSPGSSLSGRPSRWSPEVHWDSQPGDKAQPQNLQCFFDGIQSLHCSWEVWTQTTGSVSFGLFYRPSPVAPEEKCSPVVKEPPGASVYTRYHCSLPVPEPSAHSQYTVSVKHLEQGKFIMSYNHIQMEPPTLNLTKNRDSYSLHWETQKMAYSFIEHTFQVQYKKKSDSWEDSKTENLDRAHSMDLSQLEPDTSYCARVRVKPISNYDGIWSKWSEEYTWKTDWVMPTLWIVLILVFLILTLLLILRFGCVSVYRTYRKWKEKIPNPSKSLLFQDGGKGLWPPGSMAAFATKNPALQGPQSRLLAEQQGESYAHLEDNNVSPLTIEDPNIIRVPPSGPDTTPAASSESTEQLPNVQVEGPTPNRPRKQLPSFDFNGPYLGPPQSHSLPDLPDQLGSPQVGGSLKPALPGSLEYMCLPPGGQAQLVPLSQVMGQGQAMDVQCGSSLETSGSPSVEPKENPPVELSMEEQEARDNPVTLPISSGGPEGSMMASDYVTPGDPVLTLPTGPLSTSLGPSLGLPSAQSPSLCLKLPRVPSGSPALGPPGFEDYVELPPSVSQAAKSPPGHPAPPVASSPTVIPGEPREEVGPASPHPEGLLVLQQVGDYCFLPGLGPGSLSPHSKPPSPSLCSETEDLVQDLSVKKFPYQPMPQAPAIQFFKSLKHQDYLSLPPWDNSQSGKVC

proliferation of the GM-CSF dependent FDC-P1 cell line (Biotrak BrdU cell proliferation ELISA), 10 ng per well: 25%
Substance: murine GM-CSF fused to the S. cerevisiae Gas1 GPI modification signal sequence (GPI-GM-CSF) (from UniProt P01587 18-141; P22146 470-528) (other; the values are: proliferation increase vs soluble GM-CSF)
